Results on one molecule are retold here after patent US20190282704A1.

For assay [1], the target named is canine IL-31 (Canine_IL31) (canine).
Assay [2] deals with wildtype feline IL-31 (Feline_IL31_wildtype) (feline).
Assay [3] has as its target canine IL-31 (Canine_IL31) (canine). Put plainly: cell-based or functional assay.
Assay [4] concerns the target wildtype feline IL-31 (Feline_IL31_wildtype) (feline). Kind of assay: cell-based or functional assay.

Chain of canine IL-31 (Canine_IL31) (canine) (chain, as listed by the source limits assumed, form in doubt): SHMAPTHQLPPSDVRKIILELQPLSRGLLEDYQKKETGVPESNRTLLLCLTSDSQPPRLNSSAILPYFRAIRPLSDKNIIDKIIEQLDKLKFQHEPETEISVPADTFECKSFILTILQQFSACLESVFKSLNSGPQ
Chain of wildtype feline IL-31 (Feline_IL31_wildtype) (feline) (chain, as listed by the source limits assumed, form in doubt): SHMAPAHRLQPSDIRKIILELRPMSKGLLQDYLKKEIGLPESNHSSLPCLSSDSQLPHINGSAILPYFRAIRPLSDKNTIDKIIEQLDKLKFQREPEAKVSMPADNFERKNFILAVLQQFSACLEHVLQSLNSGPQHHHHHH

B1: 15H05 mouse: canine chimera (antibody)
heavy: QVQLQQSAAELARPGASVKMSCKTSGYTFTSYTIHWIKQRPGQGLEWIGNINPTSGYTENNQRFKDKTTLTVDRSSNTAYLQLHSLTSEDSAVYFCARWGFKYDGEWSFDVWGAGTTVTVSSASTTAPSVFPLAPSCGSTSGSTVALACLVSGYFPEPVTVSWNSGSLTSGVHTFPSVLQSSGLYSLSSMVTVPSSRWPSETFTCNVAHPASKTKVDKPVPKRENGRVPRPPDCPKCPAPEMLGGPSVFIFPPKPKDTLLIARTPEVTCVVVDLDPEDPEVQISWFVDGKQMQTAKTQPREEQFNGTYRVVSVLPIGHQDWLKGKQFTCKVNNKALPSPIERTISKARGQAHQPSVYVLPPSREELSKNTVSLTCLIKDFFPPDIDVEWQSNGQQEPESKYRTTPPQLDEDGSYFLYSKLSVDKSRWQRGDTFICAVMHEALHNHYTQESLSHSPGK
light: DIQMNQSPSSLSASLGDTITVTCRASQGISIWLSWYQQKPGNIPKVLINKASNLHIGVPPRFSGSGSGTHFTLTITSLQPEDIATYYCLQSQTYPLTFGGGTKLEINRNDAQPAVYLFQPSPDQLHTGSASVVCLLNSFYPKDINVKWKVDGVIQDTGIQESVTEQDKDSTYSLSSTLTMSSTEYLSHELYSCEITHKSLPSTLIKSFQRSEC
Consider B1, for which the IC50, inhibition of canine IL-31-induced STAT3 phosphorylation, canine DH82 cells in assay [1] is 12.7 µg/mL. In assay [2], the IC50, inhibition of feline IL-31-induced STAT3 phosphorylation, feline FCWF4 cells is 3.11 µg/mL. In assay [3], this molecule displayed an IC50 against canine IL-31 (pSTAT3; cell type not clear) of 12.5 µg/ml. This molecule had an IC50, feline IL-31 signaling on the canine DH82 cell line (pSTAT3) in assay [4] of 0.71 µg/ml.
